# ± gives the standard deviation.
# Assay: protein stability index of a GFP-peptide fusion (GPS, HEK-293T) (PSI 1-6); higher = more stable
# [1] = treatment: DMSO, c terminus: a fixed tail appended
# [2] = treatment: MLN4924 1 uM, 8 h, c terminus: a fixed tail appended
# 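Also: 24-mer peptide tiles fused after GFP, lentivirally expressed, FACS-sorted into six equal bins by GFP/DsRed ratio, decoded by Illumina sequencing, PSI is the read-weighted mean bin number.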
Sequence,protein stability index [1],protein stability index [2],"protein stability index (treatment: DMSO, c terminus: native)","protein stability index (treatment: MLN4924 1 uM, 8 h, c terminus: native)"
PLSDDHDEKYGVPSLEELGFDTDG [CRY1],5.58 ± 0.18,5.62 ± 0.18,–,–
ENLIMFQNLANEEVRKLTQRLEEM [MATN2],3.58 ± 0.094,3.17 ± 0.47,–,–
KYRRHFLRFCHNNKKAKRYLLHGL [EIF5],2.21 ± 0.2,2.27 ± 0.19,–,–
DSSWYEPSAELVQTRMAVSLTAAE [ZNF232],4.26 ± 0.068,4.37 ± 0.29,–,–
TGDPLPEISKDNSCKENCTCSSCL [EDARADD],5.47 ± 0.3,5.47 ± 0.26,–,–
AGGQTRLQASDRYRDLAGGTGRSA [FCHSD1],4.25 ± 0.41,4.35 ± 0.28,–,–
TIENILDNDPRDLIGDFSKGYLFH [CDC25A],2.58 ± 0.38,2.69 ± 0.19,–,–
CEYNFVSPSKSFWTRITCAEEGWS [CFHR2],2.31 ± 0.35,2.05 ± 0.089,–,–
LNVFQTVSRMRTQRAFSIQTPEQY [PTPN9],2.38 ± 0.33,2.54 ± 0.31,–,–
REQKEKSPPDQPAVPHPPPSTPIK [ADD1],5.39 ± 0.12,5.53 ± 0.18,–,–
NGSISSAGNSSRNSSQSSSDGSCK [BTBD10],5.01 ± 0.23,5.2 ± 0.16,–,–
PHPDLPAEEKEQLLHNDEYQETMV [USP39],5.35 ± 0.24,5.55 ± 0.21,–,–
EGEADHSGYAGELGFRAFSGSGNR [UFD1],4.63 ± 0.25,4.69 ± 0.54,–,–
LPSLGCRTSCSSRPCVPPSCHGYT [KRT34],2.32 ± 0.26,2.2 ± 0.11,–,–
YSTRYGSPKRQLQFYRNLGKSGLR [KCNAB2],2.59 ± 0.18,2.69 ± 0.19,–,–
TSEKLGEWNEKVTQSDLYKKTQET [TPD52L2],5.13 ± 0.28,5.1 ± 0.063,–,–
LTDAVAPGNKGRGQRGNTESKTDG [TCF25],5.5 ± 0.27,5.48 ± 0.45,–,–
DIDKKHLVLLRDGRTLIGFLRSID [LSM1],2.3 ± 0.31,2.25 ± 0.18,–,–
AGSKVKDMAGDWHWALRVTPGLGV [SPNS1],2.07 ± 0.28,2.1 ± 0.26,–,–
SNVGTAISKKFGDMSYSIRHSISM [TPD52L1],2.19 ± 0.49,2.26 ± 0.45,–,–
VYLLGNPVVWWLNLLSIALYLLSG [POMT2],3.31 ± 0.95,2.96 ± 0.56,–,–
SPNPFPEISRGEYLYTYDSQITDS [ZNF8],4.08 ± 0.17,4.35 ± 0.38,–,–
KSISPWKSPPQLRQFLPEEFMKTL [DENND6A],2.47 ± 0.088,2.61 ± 0.3,–,–

Sequence,protein stability index [1],protein stability index [2],"protein stability index (treatment: DMSO, c terminus: native)","protein stability index (treatment: MLN4924 1 uM, 8 h, c terminus: native)"
SRTVRQFQFTDWPEQGVPKSGEGF [PTPRD],3.88 ± 0.25,4.02 ± 0.68,–,–
YLIIRTLGKLIPRHQSIFKSNGFF [CDKL4],2.74 ± 1.3,2.72 ± 1.8,–,–
DTDKLLNSASDPSLKDGLSDSDSE [PSD2],5.45 ± 0.36,5.57 ± 0.074,–,–
LYGFLLTFGFITMTPQLFINYKLK [CLPTM1],3.12 ± 0.64,3.44 ± 0.32,–,–
VISVVSYLILALLSVTISFRIYKS [RTN3],3.21 ± 0.65,2.8 ± 0.29,–,–
ESLVPFIVNDNITNNFFRFLCMT [DYNC2LI1],–,–,3.91 ± 0.45,2.63 ± 0.67
PYTEKPRLWHTACASDEGEVIVFG [KLHDC2],2.51 ± 0.21,2.86 ± 0.23,–,–
DHYAAIKKAWDDLKKYLEPRCPRM [FBXO3],2.55 ± 0.22,2.69 ± 0.064,–,–
AEFMRNFQKGQVTRDGFKLVMASL [HMOX1],2.33 ± 0.75,2.26 ± 0.16,–,–
DLPVVQGSSSFSLKGYPSLMRSQS [TRIM29],3.03 ± 0.25,3.3 ± 0.24,–,–
KGHNTPKDIAHFWELGGGTSLLDL [DYNC2LI1],3.02 ± 0.28,3.2 ± 0.11,–,–
ISKMEPLEIPVETITSEVIEKCTT [CRY1],4.08 ± 0.64,4.32 ± 0.2,–,–
NKSVTLYTVKDKATGEVLGQFYLD [NLN],2.13 ± 0.3,–,–,–
ALMHELSNDGARRQFEFYLEEMIL [BTBD10],2.24 ± 0.037,2.36 ± 0.69,–,–
TMNRRVCVLMLLAAWIGGFLHSLV [OR4A15],2.53 ± 0.36,2.18 ± 0.24,–,–
SQFSGTLMRTCERLVKEGRFVPSN [PPTC7],3.12 ± 0.17,3.04 ± 0.4,–,–
DINREQLNDIFHLLKSHTNVLSVN [TPH1],2.18 ± 0.17,2.27 ± 0.23,–,–
TAFLLNIQLFEELQELLTHDTKDQ [HMOX1],2.32 ± 0.28,2.49 ± 0.44,–,–
SSCTHVTGNYRKGNAHLGYSLVTH [ADAMTSL2],2.92 ± 0.7,2.77 ± 0.42,–,–
FVEATRKWKVGIPSDPLVSIGALI [ALDH8A1],2.34 ± 1.1,2.16 ± 0.57,–,–
RLLGSVQQDLERSLQDASRGDPAH [PBXIP1],4.7 ± 0.2,4.56 ± 0.46,–,–
ALAHCHQHGLVLRDLKLCRFVFAD [TRIB3],2.44 ± 0.43,2.23 ± 0.23,–,–
DLVTGGELFEDIVAREYYSEADAS [CAMK2B],4.73 ± 0.2,4.52 ± 0.34,–,–

Sequence,protein stability index [1],protein stability index [2],"protein stability index (treatment: DMSO, c terminus: native)","protein stability index (treatment: MLN4924 1 uM, 8 h, c terminus: native)"
EEKKLRRSQHARKETEFLRLKRTR [STK38L],3.01 ± 0.16,3.25 ± 0.27,–,–
MPLEQRSQHCKPEEGLEARGEALG [MAGEA3],5.34 ± 0.34,5.39 ± 0.14,–,–
ILHIMVKVVKGHRPELPPVCRARP [RIPK4],3.35 ± 0.92,2.4 ± 0.36,–,–
LHSEFDEQHGKKVPTVSRPYSFIE [SEC22B],4.04 ± 0.13,4.14 ± 0.24,–,–
ILKRLLKEQHLWDVDLLDSKVIEI [DLC1],2.44 ± 1,2.02 ± 0.68,–,–
GPLPQSFDKEWVAKQTKRMLDMKV [COX4I1],3.86 ± 0.15,3.86 ± 0.31,–,–
ALARLGTVTVISPLELMRTKLQAQ [SLC25A39],2.18 ± 0.39,2.15 ± 0.72,–,–
ERMRNSRDRLLNRYRQAGSSGPGN [RPAIN],4.12 ± 0.25,4.41 ± 0.27,–,–
KNDVFICGGYNGEVILGDIWKLNL [KLHDC10],2.6 ± 0.84,2.33 ± 0.74,–,–
ESAGPSRAVRQSVTSFPDADAFHH [EMD],4.33 ± 0.86,4.44 ± 0.18,–,–
KQASNLETAIADAEQRGDNALKDA [KRT71],5.66 ± 0.18,5.62 ± 0.22,–,–
MGPDEYEEMEEEEEEEEEEDEDDD [FBXO3],5.42 ± 0.22,5.47 ± 0.14,–,–
EEAEAGEEAVPEEEGPTVVLNPHP [CHGA],5.59 ± 0.14,5.44 ± 0.28,–,–
EMFPAAQQLYRHGKAYRFLFGFSA [JAGN1],2.5 ± 0.56,2.31 ± 0.29,–,–
CYLSFPDSNSGCLGDTQFCFRFRQ [DENND6A],2.25 ± 0.28,2.4 ± 0.63,–,–
LTEHQRIHTGIKPHQCSECGRAFS [ZNF649],3.58 ± 0.064,3.69 ± 0.38,–,–
KEMFTVGCCVFAFLVGLLFVQRSG [SLC6A17],2.38 ± 0.66,3.13 ± 0.61,–,–
NEHSAHCPHTPEFSVTGGTEEKSS [RPAIN],5.44 ± 0.24,5.28 ± 0.15,–,–
FLSEEEYWKLQIFFTNVIQALGEH [CCNC],2.42 ± 0.96,2.36 ± 0.084,–,–
SRGACTSHDPQSSRGSRRRRRQRS [KCNA4],5.39 ± 0.4,5.53 ± 0.32,–,–
DIHGLRKVIDDTNITRLQLETEIE [KRT18],4.28 ± 0.28,4.16 ± 0.46,–,–
FIDTYSDVGRYIDHYAAIKKAWDD [FBXO3],2.6 ± 0.61,2.37 ± 0.77,–,–
SLGQMKELGVIFYNCSCLVLDLQR [PLD5],2.44 ± 0.64,2.93 ± 0.48,–,–

Sequence,protein stability index [1],protein stability index [2],"protein stability index (treatment: DMSO, c terminus: native)","protein stability index (treatment: MLN4924 1 uM, 8 h, c terminus: native)"
SFRKFRYGYNNVVTIPAGATHILV [ADAMTS4],2.64 ± 0.28,2.99 ± 0.51,–,–
AAVPGTQLSPSPTPASQSPKKPPA [SNAP91],5.44 ± 0.25,5.37 ± 0.33,–,–
NYLFMGDYVDRGYYSVETVTLLVA [PPP2CA],2.71 ± 0.6,2.82 ± 0.56,–,–
LRGLPGERGTPGLPGPKGDDGKLG [SCARA5],4.96 ± 0.33,4.96 ± 0.19,–,–
LTVLQRLDVWLSGGNDLCVWNRKL [WDR41],2.17 ± 1,2.39 ± 0.32,–,–
LTDAYGPPSNFLEIDIFNPQTVGV [SNX12],2.87 ± 0.39,3.19 ± 0.39,–,–
DIREEIRKVVQSLEQTAREILTLL [TSN],3.73 ± 0.94,3.57 ± 0.3,–,–
DFLLRAASFDVCESVDEAGGSGPA [RHOBTB2],3.96 ± 0.16,4.05 ± 0.29,–,–
EEKQHLERLNKEYQEIFQQLQRSW [TRIM43],3.84 ± 0.23,3.77 ± 0.42,–,–
ELNDRFANFIEKVRFLEQQNAALR [PRPH],2.39 ± 0.21,2.71 ± 0.33,–,–
PCSKAVMSQALKATFSGFKKEQRR [ETS2],3.15 ± 0.21,3.27 ± 0.28,–,–
FSLMVTFPDVPLGIFLFCVCVIAI [TMEM175],3.37 ± 0.5,3.14 ± 0.31,–,–
RMETPKSREITTLANNQCMATESV [EHMT1],4.56 ± 0.22,4.79 ± 0.08,–,–
DNEDSELNGDYGENIYPYEEDKDE [MIA2],5.37 ± 0.24,4.86 ± 1.1,–,–
SQEPDPVQRLQAYTATEQEMQQQM [TRIM14],5.39 ± 0.15,5.17 ± 0.14,–,–
LSASQKALKEKEKASWSSLSMDEK [COX4I1],4.61 ± 0.28,4.84 ± 0.22,–,–
PETVRMVLSNMEKLFCIPVHGIRS [IMPA1],2.65 ± 0.27,2.94 ± 0.3,–,–
EIPLVIKYKKAVGLKLKQEKKEAY [WDR88],2.88 ± 0.32,2.56 ± 0.13,–,–
DTTEEVDHKPKLCRLAKGENGYGF [PDZK1],3.64 ± 0.32,3.79 ± 0.38,–,–
VNLYLGRSHFLWKEPATMSWLEEN [TCF25],2.36 ± 0.53,2.54 ± 0.56,–,–

# From the supplement of paper PMC10567573
